Consider 37 molecules from US20260242478A1 (published 2026).

Sequences and labels used below:
B1: Phage-390 (peptide)
peptide: IDWCPMHMWDFCYN
B2: Phage-392 (peptide)
peptide: LHWCPTSMWTYCYY
B3: Phage-67, clonal phage peptide MNWCPTALWHVCFN (peptide)
peptide: MNWCPTALWHVCFN
notes: tested as crude clonal phage supernatant; not shown: pIII of the bacteriophage to which the peptide is fused
B4: Phage-71, clonal phage peptide MDWCPRYLWHECFA (peptide)
peptide: MDWCPRYLWHECFA
notes: as for B3
B5: Phage-83, clonal phage peptide … (peptide)
peptide: MDWCPRFLWDECFN
notes: as for B3
B6: Phage-89, clonal phage peptide MDWCPRALWNVCFN (peptide)
peptide: MDWCPRALWNVCFN
notes: as for B3
B7: Phage-78, clonal phage peptide MDWCPRHLWHECFN (peptide)
peptide: MDWCPRHLWHECFN
notes: as for B3
B8: Phage-86, clonal phage peptide MDWCPRHLWAECFF (peptide)
peptide: MDWCPRHLWAECFF
notes: as for B3
B9: Phage-73, clonal phage peptide MDWCPRALWHECFN (peptide)
peptide: MDWCPRALWHECFN
notes: as for B3
B10: Phage-92, clonal phage peptide MDWCPRHLWHECFF (peptide)
peptide: MDWCPRHLWHECFF
notes: as for B3
B11: Phage-88, clonal phage peptide MDWCPIHLWHYCFN (peptide)
peptide: MDWCPIHLWHYCFN
notes: as for B3
B12: Phage-69, clonal phage peptide MDWCPIHMWADCFA (peptide)
peptide: MDWCPIHMWADCFA
notes: as for B3
B13: Phage-66, clonal phage peptide MDWCPRYLWNECFY (peptide)
peptide: MDWCPRYLWNECFY
notes: as for B3
B14: Phage-82, clonal phage peptide MDWCPRDLWTECFA (peptide)
peptide: MDWCPRDLWTECFA
notes: as for B3
B15: Phage-85, clonal phage peptide MDWCPMDLWYQCFN (peptide)
peptide: MDWCPMDLWYQCFN
notes: as for B3
B16: Phage-75, clonal phage peptide MDWCPRSHWHVCYN (peptide)
peptide: MDWCPRSHWHVCYN
notes: as for B3
B17: Phage-84, clonal phage peptide MDWCPKYLWSVCFF (peptide)
peptide: MDWCPKYLWSVCFF
notes: as for B3
B18: Phage-74, clonal phage peptide MDWCPRDMWLFCYN (peptide)
peptide: MDWCPRDMWLFCYN
notes: as for B3
B19: Phage-91, clonal phage peptide … (peptide)
peptide: MDWCPRDLWFLCYN
notes: as for B3
B20: Phage-77, clonal phage peptide MDWCPFYLWDECFN (peptide)
peptide: MDWCPFYLWDECFN
notes: as for B3
B21: Phage-68, clonal phage peptide MDWCPMYMWYECFA (peptide)
peptide: MDWCPMYMWYECFA
notes: as for B3
B22: Phage-79, clonal phage peptide MDWCPRDLWHECFS (peptide)
peptide: MDWCPRDLWHECFS
notes: as for B3
B23: Phage-90, clonal phage peptide MDWCPIDLWHLCFY (peptide)
peptide: MDWCPIDLWHLCFY
notes: as for B3
B24: Phage-76, clonal phage peptide MDWCPRYLWSDCFA (peptide)
peptide: MDWCPRYLWSDCFA
notes: as for B3
B25: Phage-87, clonal phage peptide MDWCPKDLWYLCFA (peptide)
peptide: MDWCPKDLWYLCFA
notes: as for B3
B26: Phage-70, clonal phage peptide ITWCPSSMWNRCFI (peptide)
peptide: ITWCPSSMWNRCFI
notes: as for B3
B27: Phage-72, clonal phage peptide MFWCPTTMWNRCFT (peptide)
peptide: MFWCPTTMWNRCFT
notes: as for B3
B28: Phage-197 (peptide)
peptide: MDWCPRHMWYECFF
notes: tested as crude clonal phage supernatant
B29: Phage-200 (peptide)
peptide: MFWCPFDMWHFCFN
notes: as for B28
B30: Phage-202 (peptide)
peptide: MFWCPMDMWDQCFN
notes: as for B28
B31: Phage-201 (peptide)
peptide: MDWCPRDMWDQCFD
notes: as for B28
B32: Phage-198 (peptide)
peptide: MDWCPRAMWNHCFN
notes: as for B28
B33: Phage-199 (peptide)
peptide: MDWCPRNMWAQCFA
notes: as for B28
B34: Phage-358 clonal phage peptide MDWCPPHLWHECFF (peptide)
peptide: MDWCPPHLWHECFF
B35: Phage-297 (peptide)
peptide: MDWCPRHLWTECFS
notes: tested as crude phage supernatant
B36: Phage-289 (peptide)
peptide: MDWCPRYLWNVCFA
notes: as for B35
B37: Phage-298 (peptide)
peptide: MDWCPLYLWAECFN
notes: as for B35

The target in the first experiment is T1, Anti-CD28 scFv (VH - linker 1 - VL) (biotinylated (site not stated)).
T1 construct: Captured as biotinylated scFv on neutravidin plates in the panning ELISA
Nature of the experiment: phage ELISA as above, wells pre-incubated with soluble CD28 (competitor).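 Also: ELISA of crude clonal phage supernatants added to wells pre-treated with soluble CD28 in blocking buffer, bound phage read out with HRP-conjugated anti-M13 antibody.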 A general note: ELISA stands for enzyme-linked immunosorbent assay.
T1 sequence (scFv, as listed by the source): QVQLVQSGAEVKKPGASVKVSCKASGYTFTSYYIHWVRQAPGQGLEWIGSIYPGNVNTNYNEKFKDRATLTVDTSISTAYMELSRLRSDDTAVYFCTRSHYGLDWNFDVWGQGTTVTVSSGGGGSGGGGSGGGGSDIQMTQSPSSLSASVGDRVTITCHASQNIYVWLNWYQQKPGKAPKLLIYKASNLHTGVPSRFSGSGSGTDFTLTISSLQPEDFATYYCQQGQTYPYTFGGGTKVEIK
Regarding B1, the “CD28 scFv signal in presence of CD28” value amounted to 0.232.

In the case of B2, the “CD28 scFv signal in presence of CD28” value came out at 2.46.

For a further experiment, the target named is T2, anti-CD28 scFv (VH - linker 1 - VL) (biotinylated (site not given)). Put plainly: phage ELISA as before, wells pre-incubated with soluble CD28 (competitor).
T2 sequence (scFv, as listed by the source): as above
With B3, the “CD28 scFv signal in presence of CD28” value turned out to be 0.169.

As to B4, the “CD28 scFv signal in presence of CD28” value was 0.429.

Consider B5, for which the “CD28 scFv signal in presence of CD28” value was determined as 0.483.

As for B6, the “CD28 scFv signal in presence of CD28” value is 0.472.

Consider B7, for which the “CD28 scFv signal in presence of CD28” value came to 0.704.

Regarding B8, the “CD28 scFv signal in presence of CD28” value is 0.292.

B9: the “CD28 scFv signal in presence of CD28” value was determined as 0.401.

In the case of B10, the “CD28 scFv signal in presence of CD28” value was found to be 0.373.

Consider B11, for which the “CD28 scFv signal in presence of CD28” value was found to be 0.453.

In the case of B12, the “CD28 scFv signal in presence of CD28” value is 0.143.

With B13, the “CD28 scFv signal in presence of CD28” value was determined as 0.358.

Take B14: the “CD28 scFv signal in presence of CD28” value stood at 0.151.

Consider B15, for which the “CD28 scFv signal in presence of CD28” value is 0.187.

On to B16, for which the “CD28 scFv signal in presence of CD28” value is 0.281.

In the case of B17, the “CD28 scFv signal in presence of CD28” value came to 0.826.

As for B18, the “CD28 scFv signal in presence of CD28” value is 1.02.

As for B19, the “CD28 scFv signal in presence of CD28” value was 0.424.

On to B20, for which the “CD28 scFv signal in presence of CD28” value amounted to 0.291.

On to B21, for which the “CD28 scFv signal in presence of CD28” value was 0.358.

With B22, the “CD28 scFv signal in presence of CD28” value was 0.382.

Turning to B23, the “CD28 scFv signal in presence of CD28” value stood at 0.488.

In the case of B24, the “CD28 scFv signal in presence of CD28” value was 1.53.

Regarding B25, the “CD28 scFv signal in presence of CD28” value stood at 0.213.

As to B26, the “CD28 scFv signal in presence of CD28” value was determined as 0.11.

With B27, the “CD28 scFv signal in presence of CD28” value stood at 0.338.

In a further experiment the target is T3, anti-CD28 scFv (VH - linker 1 - VL) (biotinylated (site not stated)).
T3 construct: Captured as biotinylated scFv on neutravidin coated plates in the clonal phage ELISA
Nature of the experiment: clonal phage ELISA; biotinylated anti-CD28 scFv on neutravidin plate, anti-M13-HRP detection.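 Also: crude supernatants of phage clones were tested in wells pretreated with blocking buffer either alone or supplemented with soluble CD28 protein before phage addition.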
T3 sequence (scFv, as listed by the source): as above
Regarding B28, the “CD28 scFv signal” value worked out at 2.34.

On to B29, for which the “CD28 scFv signal” value worked out at 2.29.

On to B30, for which the “CD28 scFv signal” value came out at 2.26.

As for B31, the “CD28 scFv signal” value worked out at 2.29.

As to B32, the “CD28 scFv signal” value turned out to be 2.33.

In the case of B33, the “CD28 scFv signal” value is 2.31.

For a further experiment, the target named is anti-CD28 scFv (VH - linker 1 - VL) (biotinylated (site not stated)). Nature of the experiment: phage ELISA; biotinylated anti-CD28 scFv on neutravidin plate, clonal phage supernatant, anti-M13-HRP.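 Also: before the phage were added, wells were pre-incubated with soluble CD28 protein in blocking buffer, or with blocking buffer alone, and were not washed in between.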
Target sequence in this assay (scFv, as listed by the source): as above
Consider B34, for which the “CD28 scFv signal” value came to 1.45.

The next experiment deals with T2, anti-CD28 scFv (VH - linker 1 - VL). Put plainly: phage ELISA; biotinylated anti-CD28 scFv on neutravidin plate, clonal phage supernatant, anti-M13-HRP detection.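 Also: before phage addition, wells were pretreated with soluble CD28 protein in blocking buffer, or with blocking buffer only as the comparison, then phage were added without washing.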
Procedure: (§1) Clonal phage were harvested as crude supernatants and screened via standard enzyme linked immunosorbent assays (ELISAs). […] Prior to the addition of clonal phage, wells were incubated with blocking buffer and CD28 soluble protein or blocking buffer alone. Without washing or aspirating, clonal phage supernatants were then added to the wells and incubated for a short time. Wells were then washed followed by detection of bound phage using a horse radish peroxidase conjugated anti-M13 antibody.
Consider B3, for which the “CD28 scFv signal” value worked out at 1.64.

In the case of B4, the “CD28 scFv signal” value amounted to 2.63.

In the case of B5, the “CD28 scFv signal” value turned out to be 2.63.

In the case of B6, the “CD28 scFv signal” value turned out to be 2.6.

Regarding B7, the “CD28 scFv signal” value came to 2.65.

B8: the “CD28 scFv signal” value was 2.61.

Consider B9, for which the “CD28 scFv signal” value turned out to be 2.69.

B10: the “CD28 scFv signal” value is 2.58.

With B11, the “CD28 scFv signal” value amounted to 2.6.

Take B12: the “CD28 scFv signal” value is 2.46.

Take B13: the “CD28 scFv signal” value amounted to 2.54.

Regarding B14, the “CD28 scFv signal” value worked out at 2.63.

On to B15, for which the “CD28 scFv signal” value worked out at 2.62.

As to B16, the “CD28 scFv signal” value came to 1.95.

For the molecule B17, the “CD28 scFv signal” value amounted to 2.62.

With B18, the “CD28 scFv signal” value amounted to 2.71.

On to B19, for which the “CD28 scFv signal” value is 2.59.

Take B20: the “CD28 scFv signal” value worked out at 2.67.

As to B21, the “CD28 scFv signal” value is 2.48.

Regarding B22, the “CD28 scFv signal” value was 2.65.

On to B23, for which the “CD28 scFv signal” value was found to be 2.59.

Take B24: the “CD28 scFv signal” value was determined as 2.73.

In the case of B25, the “CD28 scFv signal” value came to 2.61.

As for B26, the “CD28 scFv signal” value amounted to 0.379.

With B27, the “CD28 scFv signal” value turned out to be 0.662.

The target in the next experiment is T3, anti-CD28 scFv (VH - linker 1 - VL). Nature of the experiment: clonal phage ELISA; captured anti-CD28 scFv pre-incubated with soluble CD28 (competitor), anti-M13-HRP detection.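 Also: crude clonal phage supernatants added to wells pretreated with soluble CD28 in blocking buffer, compared against wells given blocking buffer only, then bound phage measured.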
Procedure: as §1
For B28, the “CD28 scFv signal in presence of CD28” value turned out to be 0.298.

On to B29, for which the “CD28 scFv signal in presence of CD28” value turned out to be 0.469.

Take B30: the “CD28 scFv signal in presence of CD28” value came to 0.207.

For B31, the “CD28 scFv signal in presence of CD28” value turned out to be 0.119.

For the molecule B32, the “CD28 scFv signal in presence of CD28” value was 0.426.

Consider B33, for which the “CD28 scFv signal in presence of CD28” value came out at 0.209.

Another experiment has as its target T4, Anti-CD28 scFv (VH - linker 1 - VL) (biotinylated (site not stated)).
T4 construct: Biotinylated scFv captured on neutravidin coated plates in the panning ELISA
Put plainly: phage ELISA; biotinylated anti-CD28 scFv on neutravidin plate, wells pre-incubated with soluble CD28 (competitor), anti-M13-HRP detection.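 Also: bound clonal phage detected by peroxidase-labelled anti-M13 antibody, compared against wells given blocking buffer alone without soluble CD28.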
T4 sequence (scFv, as listed by the source): as above
Consider B35, for which the “CD28 scFv signal in presence of CD28” value came out at 0.243.

Turning to B36, the “CD28 scFv signal in presence of CD28” value is 0.28.

In the case of B37, the “CD28 scFv signal in presence of CD28” value amounted to 0.193.
